{
  "source": "patent US7888090B2",
  "about": "“Mutants of O6-alkylguanine-DNA alkyltransferase” (Ecole Polytechnique Federale de Lausanne, priority 2004, dated 2011)",
  "molecules": {"B1": {"name": "AGTM: AGT mutant Cys62Ala, Gln115Ser, Gln116His, Lys125Ala, Ala127Thr, Arg128Ala, Gly131Lys, Gly132Thr, Met134Leu, Arg135Ser, Cys150Asn, Ser151Ile, Ser152Asn, Asn157Gly, Ser159Glu, truncated after … (protein, UniProt P16455 1-207, looked up, variant C62A Q115S Q116H K125A A127T R128A G131K G132T M134L R135S C150N S151I S152N N157G S159E del183-207)", "Methylated-DNA--protein-cystei …": "MDKDCEMKRTTLDSPLGKLELSGCEQGLHEIKLLGKGTSAADAVEVPAPAAVLGGPEPLMQATAWLNAYFHQPEAIEEFPVPALHHPVFQQESFTRQVLWKLLKVVKFGEVISYSHLAALAGNPAATAAVKTALSGNPVPILIPCHRVVNINGAVGGYEGGLAVKEWLLAHEGHRLGKPGLG", "modifications": "His tag"}},
  "key": {"[1]": {"assay": "BG-Cy3 activity assay (reaction rate of AGT mutants)", "format": "biochemical", "conditions": "divided by value for wild type hAGT; purified GST fusion proteins (p.)", "method": "(§1) Reactivity against DNA-based substrates measured with a BG-Cy3 assay: BG-Cy3 is prepared by reacting the previously described O^6-(4-aminomethyl-benzyl)guanine (Keppler et al., NatureBiotechnol. 21:86-89, 2003) with the commercially available N-hydroxysuccinimide ester of Cy3, (Cy3-NHS, Amersham). The coupling reaction is performed at ambient temperature in N,N-dimethylformamide in the presence of 1 eq. of triethylamine. The BG-Cy3 conjugate is purified by reversed-phase HPLC on a C18-column by using linear gradients from 0.1% trifluoroacetic acid to acetonitrile. After solvent evaporation BG-Cy3 is dissolved in dimethyl sulfoxide and stored at −20° C. For measuring the reactivity with DNA-based substrates, a reaction mixture containing different concentrations (0 to 5 µM) of oligonucleotide SEQ ID NO:2 (modified in position 14), GST-AGT fusion protein at 0.2 µM and BG-Cy3 at […] in reaction buffer (50 mM HEPES, pH 7.2, 1 mM DTT, 200 mg/ml BSA) is incubated in microtiterplates. Fluorescence of the Cy3 derivative (excitation 519 nm, emission at 572 nm) is measured on a Spectramax Gemini plate reader (Molecular Devices).\nThe amplified products are cloned in fusion to the g3 gene of filamentous phage in the vector pAK100 via SfiI restriction sites. The resulting gene libraries are used for phage display as described under Example 4. The mutants of the libraries are selected with 5 to 50 nM of BG-Bt for 10 min. Selected mutants are subcloned into pGEX using the primers SEQ ID NO:3 and SEQ ID NO:13. The reaction rate of mutant AGTs is determined as described in Example 6, Reactivity against DNA-based substrates (BG-Cy3 assay).\nFor the activity assay purified GST fusion proteins were used for mutants marked with “p.” (prepared as described under Example 1); periplasmic extracts were used for mutants marked with “x.” (prepared as described under Example 2)."}, "[2]": {"assay": "Activity assay with biotinylated O^6-benzylguanine (BG-Bt), Western blotting", "format": "biochemical", "conditions": "statement in words", "method_in_brief": "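Purified mutant GST-AGT (0.2 μM) reacted with 1 μM biotinylated O^6-benzylguanine in 50 mM HEPES pH 7.2, 1 mM DTT at room temperature. Time-point aliquots quenched with O^6-benzylguanine in SDS buffer. Biotinylated protein detected by Western blot with neutravidin-peroxidase, band intensity quantified.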"}, "[3]": {"assay": "Competition of N^9-substituted and N^9-unsubstituted O^6-benzylguanine substrates", "format": "biochemical", "method": "Such N^9-substituted O^6-alkylguanine substrates are the natural substrates of the wild type AGT. The ability of wild type AGT or mutant AGT to react with N^9-modified O^6-alkylguanine substrates is measured as the rate of its reaction with such substrates, e.g. with the low molecular weight N^9-cyclopentyl-O^6-benzylguanine in presence of biotinylated N^9-unsubstituted O^6-alkylguanine substrates in competition experiments. Subsequently, samples are subjected to Western blotting and detection with streptavidin derivates to obtain kinetic constants for these substrates. Alternatively, the reactivity towards such substrates is measured as the inhibition of the reaction of AGT with BG-Cy3. The reaction of AGT with BG-Cy3 is followed by an increase of Cy3 fluorescence intensity upon binding to AGT, after preincubation or in direct competition with the N^9-modified O^6-alkylguanine substrate.\nSelected AGT mutants are subcloned into pGEX2T, expressed, purified and characterized as described in Example 1. Discrimination between N^9 substituted and N^9 unsubstituted O^6-benzylguanine substrates is evaluated by competition experiments for purified mutated GST-AGT in vitro with N^9-substituted and N′-unsubstituted O^6-benzylguanine. Aliquots of 0.2 μM GST-AGT are incubated with varying concentrations of N^9 substituted substrate (0, 0.5, up to 100 µM) and 0.5 µM biotinylated O^6-benzylguanine (BG-Bt, substance 3a of Juillerat et al., Chem Biol 10:313-317, 2003) in 50 mM HEPES pH 7.3 and 1 mM DTT at room temperature. After 45 min reactions are quenched by the addition of SDS-Laemmli buffer and heat denaturation. Samples are subjected to SDS-PAGE and Western blotting analysis (neutravidin-peroxidase conjugate (PIERCE), Renaissance reagent plus (NEN)). The intensity of the corresponding bands is quantified by a Kodak Image Station 440."}, "[4]": {"test_system": "oligonucleotide SEQ ID NO:2 (modified in position 14)", "assay": "Reactivity against DNA-based substrates (BG-Cy3 assay with BG-modified oligonucleotide)", "format": "biochemical", "method": "The ability of wild type AGT or mutant AGT to react with alkylated DNA substrates is measured as the reaction of its inactivation by a synthetic oligonucleotide containing O^6-benzylguanine (SEQ ID NO:2, modified in position 14). Subsequently, the reactions are quenched by incubation with biotinylated O^6-alkylguanine. Samples are subjected to Western blotting and detection with streptavidin derivates to obtain kinetic constants for these substrates. Alternatively, the ability of wild type or mutant AGT to react with alkylated DNA substrates is measured via its labeling efficiency in competition with a fluorescent substrate of AGT. The reaction kinetics of AGT with BG-Cy3 (O^6-benzylguanine coupled to Cy3) is followed by fluorescence intensity measurements at various concentrations of a competing synthetic oligonucleotide containing O^6-benzylguanine (SEQ ID NO:2, modified in position 14).\nas §1"}, "CHO cells": {"test_system": "CHO cells", "assay": "Selective labelling in cells after CPTG pre-incubation", "format": "cell-based", "conditions": "5 µM CPTG 10 min, then 5 µM fluorescent substance 4 20 min", "text": "In a further experiment, the mutant AGTM as described in Example 6 is amplified with the primers SEQ ID NO:34 and SEQ ID NO:36 and cloned between the NheI and BgIII sites of the vector pEGFP-Nuc. The […]-galactosidase gene is amplified with the primers SEQ ID NO:37 and SEQ ID NO:38 and subcloned into this vector via BgIII/BamHI to result in a vector with an AGTM-[…]-Gal fusion gene. The hAGT gene is amplified by the principle described under Example 1 with the primers SEQ ID NO:39, SEQ ID NO:40, SEQ ID NO:34, and SEQ ID NO:35 and cloned via NheI/BgIII into pEGFP-Nuc to result in an AGT-NLS3 fusion gene coding for the mutation Gly160Trp. After transient expression of both AGT mutants in parallel, the cells are incubated with 5 µM CPTG for 10 min and subsequently with 5 µM of substance 4 of Juillerat et al., Chem Biol 10:313-317, 2003, for 20 min. The cells are washed and imaged as described under Example 1."}},
  "data": [
    {"molecule": "B1", "values": [
      {"measurement": "Relative reaction rate", "setting": "[1]", "result": 2.72},
      {"measurement": "activity towards O^6-benzylguanine substrates", "setting": "[2]", "result": "retains the reactivity"},
      {"measurement": "activity towards O^6-benzylguanine substrates", "setting": "[2]; Gln115Ser, Gln116His, Lys125Ala, Ala127Thr, Arg128Ala, Gly131Lys, Gly1", "result": "increased reactivity"},
      {"measurement": "reduced reactivity with N^9-substituted O^6-alkylguanine derivatives (factor)", "setting": "[3]", "result": "≥ 10"},
      {"measurement": "reduced reactivity towards O^6-alkyl-N^9-deoxyribosylguanine or N^9-cyclopentyl-O^6-benzylguanine", "setting": "[3]; comparator not stated", "result": "at least 100 fold"},
      {"measurement": "reduced reactivity with DNA substrates (factor)", "setting": "[4]", "result": "≥ 100"},
      {"measurement": "reaction with BG-Cy3 in presence of BG-modified oligonucleotide", "setting": "[4]; up to 5 µM BG-modified oligonucleotide", "result": "no reduction"},
      {"measurement": "reaction with CPTG inside cells", "setting": "CHO cells", "result": "does not react with CPTG"}
    ]}
  ]
}
